Assay results as given in patent US20100184108.

Biological target: T1, 15-residue histone H3 trimethylated Lys9 (H3K9me3) substrate peptide, H2N-ARTKQTARK(tri-methyl)STGGKA-amide
T1 chain: ARTKQTARKSTGGKA

B1: catalytic domain, residues 1-350, of the human histone demethylase JMJD2A (protein)
chain: MASESETLNPSARIMTFYPTMEEFRNFSRYIAYIESQGAHRAGLAKVVPPKEWKPRASYDDIDDLVIPAPIQQLVTGQSGLFTQYNIQKKAMTVREFRKIANSDKYCTPRYSEFEELERKYWKNLTFNPPIYGADVNGTLYEKHVDEWNIGRLRTILDLVEKESGITIEGVNTPYLYFGMWKTSFAWHTEDMDLYSINYLHFGEPKSWYSVPPEHGKRLERLAKGFFPGSAQSCEAFLRHKMTLISPLMLKKYGIPFDKVTQEAGEFMITFPYGYHAGFNHGFNCAESTNFATRRWIEYGKQAVLCSCRKDMVKISMDVFVRKFQPERYKLWKAGKDNTVIDHTLPTPEA
  fluorescence of the formaldehyde-Luminos reagent adduct (demethylase activity, positive control assay): 57,000±400 relative fluorescence units
  fold reduction in the fluorescence signal when a component is omitted: Omission of 2-OG, the H3K9me3 peptide, or JMJD2A results in a ˜30-fold reduction in the fluorescence signal
  signal to background ratio (positive control reactions against negative control assays): signal to background ratio of 20:1 or greater
